Assay [1] concerns the target human CD137 on DO11.10-hCD137 cells (human, UniProt Q07011 24-255). Nature of the assay: cell-based or functional assay.
Assay [2] has as its target T1, TNFRSF1A-Fc (human, UniProt P19438 30-211, limits assumed).
T1 construct: bought; also called TNFRSF1A (R&D Systems, 372-RI-050/CF); not shown: Fc part of the bought fusion
T1 sequence (looked up): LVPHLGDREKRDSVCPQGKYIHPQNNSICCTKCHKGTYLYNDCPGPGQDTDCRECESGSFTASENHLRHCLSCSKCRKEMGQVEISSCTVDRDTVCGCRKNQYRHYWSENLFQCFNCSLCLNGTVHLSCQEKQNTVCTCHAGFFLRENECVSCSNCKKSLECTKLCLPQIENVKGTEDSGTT
The assay can be described thus: SPR, antigen immobilised on CM5 chip. (In general: Surface plasmon resonance follows binding to a sensor surface in real time, without labels.)

Assay [3] deals with T2, NGFR-Fc (human, UniProt P08138 29-250).
T2 construct: bought; also called NGFR (R&D Systems, 367-NR-050/CF); not shown: Fc part of the bought fusion
T2 sequence (looked up): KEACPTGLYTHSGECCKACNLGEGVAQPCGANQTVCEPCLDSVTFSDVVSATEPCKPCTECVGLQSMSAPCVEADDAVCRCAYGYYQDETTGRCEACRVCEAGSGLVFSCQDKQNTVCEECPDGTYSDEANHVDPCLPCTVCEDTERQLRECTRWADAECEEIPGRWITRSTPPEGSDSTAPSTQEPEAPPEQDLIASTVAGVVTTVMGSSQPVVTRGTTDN
The assay can be described thus: SPR, antigen immobilised on CM5 chip.

Assay [4] deals with T3, GITR-hFc-Avi (human, UniProt Q9Y5U5 26-161).
T3 construct: in-house produced; not shown: hFc and Avi part
T3 sequence: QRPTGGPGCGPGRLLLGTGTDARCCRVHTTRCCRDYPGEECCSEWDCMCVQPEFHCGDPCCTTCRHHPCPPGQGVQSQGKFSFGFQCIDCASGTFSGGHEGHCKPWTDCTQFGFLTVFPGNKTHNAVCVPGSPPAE
Nature of the assay: SPR, antigen immobilised on CM5 chip.

Assay [5] has as its target T4, DR6-Fc (human, UniProt O75509 42-349, limits assumed).
T4 construct: bought; also called human DR6 (R&D Systems, 144-DR-100); not shown: Fc part of the bought fusion
T4 sequence (looked up): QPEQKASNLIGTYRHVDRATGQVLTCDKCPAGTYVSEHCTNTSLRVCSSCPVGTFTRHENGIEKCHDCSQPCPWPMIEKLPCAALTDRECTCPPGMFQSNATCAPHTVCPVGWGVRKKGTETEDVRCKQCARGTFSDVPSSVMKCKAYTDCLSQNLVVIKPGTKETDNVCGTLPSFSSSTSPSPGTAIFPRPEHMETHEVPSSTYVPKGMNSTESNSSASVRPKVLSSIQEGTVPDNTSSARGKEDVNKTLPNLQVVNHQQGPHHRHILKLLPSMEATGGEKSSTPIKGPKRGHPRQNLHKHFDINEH
The assay can be described thus: SPR, antigen immobilised on CM5 chip.

For assay [6], the target named is T5, TNFRSF1B-Fc (human, UniProt P20333 23-257).
T5 construct: bought; also called TNFRSF1B (R&D Systems, 726-R2-050); not shown: Fc part of the bought fusion
T5 sequence (looked up): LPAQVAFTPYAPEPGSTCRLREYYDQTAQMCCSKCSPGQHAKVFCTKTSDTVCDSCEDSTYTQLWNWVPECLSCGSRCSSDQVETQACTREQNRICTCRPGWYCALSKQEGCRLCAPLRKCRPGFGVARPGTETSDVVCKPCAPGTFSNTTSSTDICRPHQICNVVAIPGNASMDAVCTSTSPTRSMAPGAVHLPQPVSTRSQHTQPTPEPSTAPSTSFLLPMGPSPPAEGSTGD
The assay can be described thus: SPR, antigen immobilised on CM5 chip.

Assay [7] addresses T6, CD40-mFc (human, UniProt P25942 21-193).
T6 construct: in-house produced; not shown: mFc part
The assay can be described thus: SPR, antigen immobilised on CM5 chip.

The target in assay [8] is T7, hCD137-mFc-Avi (human, UniProt Q07011 24-186).
T7 construct: dimer; also called human CD137-mFc-Avi; human CD137-mFc
Nature of the assay: cell-based, 100 nM hCD137-mFc-Avi with 200 nM antibody, competitor human CD137L on DO11.10 cells, GMFI normalised to G1/11D4 = 0 and G1/MOR7480.1 = 100; mean of n=2. How it is done: The cells were washed once in PBS and 100 μl/well of secondary antibody (anti-mouse Fc-488 antibody, Jackson Immuno Research, 115-546-008) diluted 1:1000 in PBS containing 2% BSA was then added and incubated for 30 mins at 4° C. in the dark. The cells were washed once with PBS and resuspended in 100 μl of PBS containing DAPI (Biotium, 40043) at 1 μg/ml. The cells were analysed using a Canto II flow cytometer (BD Bioscience). Dead cells were excluded and the fluorescence in the FITC channel (488 nm/530/30) was measured. […] The data was analysed using a one-way ANOVA test and Tukey's multiple comparisons test using GraphPad Prism.

B1: FS20-22-49AA/FS30-5-37 (bispecific antibody, human IgG1, kappa, L234A L235A, V domains shown)
VH: EVQLLESGGGLVQPGGSLRLNCAASGFTFSSYAMSWVRQAPGKGLEWVSAISGSGGSTYYADSVKGRFTISRDNSKNTLYLQMNSLRAEDTAVYYCARSYDKYWGSSIYSGLDYWGQGTLVTVSS
VL: EIVLTQSPGTLSLSPGERATLSCRASQSVSSSYLAWYQQKPGQAPRLLIYGASSRATGIPDRFSGSGSGTDFTLTISRLEPEDFAVYYCQQYYSYYPVTFGQGTKVEIKR
notes: M100D to I and M100H to L against FS30-5; also called FS30-5-37 in mAb^2 format
Turning to B1, the “EC50 (nM), mIL-2 release, DO11.10-hCD137 T cell assay, crosslinked (mean of n = 2)” value (“EC50 (nM), mIL-2 release” for short) in assay [1] is 13.4 nM. Besides, in assay [1], the “Emax (mIL-2 pg/ml), DO11.10-hCD137 T cell assay, crosslinked” value (shortened to “Emax (mIL-2 pg/ml)”) was found to be 18100 pg/mL. The binding result in assay [2], in assay [3], in assay [4], in assay [5], in assay [6] and in assay [7] was “no binding (tested: 1 µM (protocol of Example 3.1))” throughout. Moreover, the “% CD137 ligand blocking activity” value in assay [8] is 105%.

B2: FS20-22-49AA/FS30-35-14 (bispecific antibody, human IgG1, kappa, L234A L235A, V domains shown)
VH: EVQLLESGGGLVQPGGSLRLSCAASGFTFSAYNIHWVRQAPGKGLEWVSDISPYGGATNYADSVKGRFTISRDNSKNTLYLQMNSLRAEDTAVYYCARNLYELSAYSYGADYWGQGTLVTVSS
VL: EIVLTQSPGTLSLSPGERATLSCRASQSVSSSYLAWYQQKPGQAPRLLIYGASSRATGIPDRFSGSGSGTDFTLTISRLEPEDFAVYYCQQYYYSSPITFGQGTKVEIKR
notes: M100F (Kabat) to A against FS30-35; also called FS30-35-14 in mAb^2 format
In the case of B2, the “EC50 (nM), mIL-2 release” value in assay [1] is 5.1 nM. The “Emax (mIL-2 pg/ml)” value in assay [1] was 19800 pg/mL. In addition, the binding result in assay [2], in assay [3], in assay [4], in assay [5], in assay [6] and in assay [7] was “no binding (tested: 1 µM (protocol of Example 3.1))” each time.

B3: FS20-22-49AA/FS30-10-3 (bispecific antibody, human IgG1, kappa, L234A L235A, V domains shown)
VH: EVQLLESGGGLVQPGGSLRLSCAASGFTFSSYDMSWVRQAPGKGLEWVSDIDPTGSKTDYADSVKGRFTISRDNSKNTLYLQMNSLRAEDTAVYYCARDLNVYGFDYWGQGTLVTVSS
VL: EIVLTQSPGTLSLSPGERATLSCRASQSVSSSYLAWYQQKPGQAPRLLIYGASSRATGIPDRFSGSGSGTDFTLTISRLEPEDFAVYYCQQSYSYPVTFGQGTKVEIKR
notes: M97 (Kabat) to N against FS30-10; also called FS30-10-3 in mAb^2 format
With B3, the “EC50 (nM), mIL-2 release” value in assay [1] was 6.1 nM. Also, the “Emax (mIL-2 pg/ml)” value in assay [1] is 17000 pg/mL. For the same molecule, the binding result in assay [2], in assay [3], in assay [4], in assay [5], in assay [6] and in assay [7] was “no binding (tested: 1 µM (protocol of Example 3.1))” throughout. For the same molecule, the “% CD137 ligand blocking activity” value in assay [8] came out at 65%.

B4: FS20-22-49AA/FS30-10-16 (bispecific antibody, human IgG1, kappa, L234A L235A, V domains shown)
VH: EVQLLESGGGLVQPGGSLRLSCAASGFTFSSYDMSWVRQAPGKGLEWVSDIDPTGSKTDYADSVKGRFTISRDNSKNTLYLQMNSLRAEDTAVYYCARDLLVYGFDYWGQGTLVTVSS
VL: EIVLTQSPGTLSLSPGERATLSCRASQSVSSSYLAWYQQKPGQAPRLLIYGASSRATGIPDRFSGSGSGTDFTLTISRLEPEDFAVYYCQQSYSYPVTFGQGTKVEIKR
notes: M97 (Kabat) to L against FS30-10; also called FS30-10-16 in mAb^2 format
For B4, the “EC50 (nM), mIL-2 release” value in assay [1] amounted to 4.7 nM. Moreover, the “Emax (mIL-2 pg/ml)” value in assay [1] turned out to be 16300 pg/mL. For the same molecule, the binding result in assay [2], in assay [3], in assay [4], in assay [5], in assay [6] and in assay [7] was “no binding (tested: 1 µM (protocol of Example 3.1))” in each case. For the same molecule, the “% CD137 ligand blocking activity” value in assay [8] came to 76%.

B5: FS20-22-49AA/FS30-10-12 (bispecific antibody, human IgG1, kappa, L234A L235A, V domains shown)
VH: EVQLLESGGGLVQPGGSLRLSCAASGFTFSSYDMSWVRQAPGKGLEWVSDIDPTGSKTDYADSVKGRFTISRDNSKNTLYLQMNSLRAEDTAVYYCARDLTVYGFDYWGQGTLVTVSS
VL: EIVLTQSPGTLSLSPGERATLSCRASQSVSSSYLAWYQQKPGQAPRLLIYGASSRATGIPDRFSGSGSGTDFTLTISRLEPEDFAVYYCQQSYSYPVTFGQGTKVEIKR
notes: M97 (Kabat) to T against FS30-10; also called FS30-10-12 in mAb^2 format
Regarding B5, the “EC50 (nM), mIL-2 release” value in assay [1] was determined as 9.5 nM. For the same molecule, the “Emax (mIL-2 pg/ml)” value in assay [1] was 17200 pg/mL. Further, the binding result in assay [2], in assay [3], in assay [4], in assay [5], in assay [6] and in assay [7] was “no binding (tested: 1 µM (protocol of Example 3.1))” each time. Further, the “% CD137 ligand blocking activity” value in assay [8] is 46%.

The record behind these values is patent US12534534 (F STAR BETA, dated 2026).
